In patent CN111018978A (DONGGUAN PENGZHI BIOTECHNOLOGY CO LTD, dated 2020):

Molecular target: T1, 人心肌肌钙蛋白I (cTnI) (human, UniProt P19429 1-210, limits assumed)
T1 construct: Both are treated here as one molecule; also called cTnI蛋白; cTnI质控品重组蛋白
Assay: BLI (AMC sensor), antibody captured, cTnI recombinant protein in solution

T1 sequence (P19429 whole entry): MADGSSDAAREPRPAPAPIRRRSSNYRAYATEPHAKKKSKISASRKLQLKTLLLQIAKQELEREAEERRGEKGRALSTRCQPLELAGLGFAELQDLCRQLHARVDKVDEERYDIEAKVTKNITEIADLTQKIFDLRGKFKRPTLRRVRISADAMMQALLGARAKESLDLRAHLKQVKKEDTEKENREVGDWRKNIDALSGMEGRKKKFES

B1: Anti-cTnI 6E3 重组抗体 (WT) (antibody, mouse IgG1, kappa, V domains shown)
VH: EVQLQQSGPEVVKPGASVKISCKASGFIFSGQTMNWVKQSGEKNLEWIGLLNPSDNTTYNNKFKGKATLTVDKSSNTAYMQLLSLTSEDSAVYYCSSFGSWAQGTLVTVSA
VL: DIVLTQSPASLAVSLGQRATISCKASNSIDYEGDSYMNWYQQKPGQSPKLLIFVASLVDSGIPARFSASGSGTDFTLNIHPVEEEDAATYYCQQTYEGPWTFGGGTKLEIKR
notes: also called 样品1的抗体; Anti-cTnI 6E3单克隆抗体
Kd: 65.5 nM
koff: 0.00278 s⁻¹
kon: 42500 M⁻¹ s⁻¹
